From the DeepSol protein solubility set

Assay: soluble on expression in E. coli; label from the status in PepcDB or PDB records

| Sequence | soluble on expression in E. coli |
| --- | --- |
| MTKLGLGLSGDLGAQEIVRMLDLQPHPEGGWYRQTFQDAPGPDGRAASTCIYYLLEAEQMSAWHRVDAVETWHYYAGAPISLTLSPPDGKGASAYVLGPDLRAGCRPQVIVPTLWWQTAVSLGAWTLVGCTVAPGFRFEGFEMAPPDWTPSTGLEHHHHHH | soluble |
| MTKSQKQTKQYLRIFDQQMSLYEHYARKNSLQSKSLFILLWLYYNPQGITQKQIVEKTYSTKQVVNATLKRWNEKNYIVFLKSQTDRREKKIILSSQGQEYAASIIAPLEKMEEAAFNSLSIQEQQTMIQLTGHYYQALLSQMQLYFVQGEGEKATKEKL | not soluble |
| MTKSQQKVSSIEKLSNQEGIISALAFDQRGALKRMMAEHQSETPTVEQIEQLKVLVSEELTQYASSILLDPEYGLPASDARNNDCGLLLAYEKTGYDVNAKGRLPDCLVEWSAKRLKEQGANAVKFLLYYDVDDTEEINIQKKAYIERIGSECVAEDIPFFLEVLTYDDNIPDNKSAEFAKVKPRKVNEAMKLFSEDCFNVDVLKVEVPVNMNFVEGFSEGEVVYTKEEAAQHFRDQDAATHLPYIYLSAGVSAELFQDTLKFAHDSGAQFNGVLCGRATWSGAVKVYIEEGEQAAREWLRTVGFKNIDDLNTVLKTTATSWKNK | soluble |
| MTKVLFITANPNSAEGSFGMAVGEAFIEAYKNEHPQDEVVTIDLFNTTVPAIDADVFAAWGKFAAGEGFEALTEVQQQKVAAMNTNLETFMNADRYVFVTPMWNFSYPPVVKAYLDNVAIAGKTFKYTENGPVGLLEGKKALHIQATGGVYSEGAYAAVDFGRNHLKTVLGFVGVNDTEYIAVEGMNANPEKAQEIKEAAIANARELAKRF | not soluble |
| MTKVQDITRESWILNTFPEWGTWLNEEIEQEVVPADNFAMWWLGNCGIWIKTPGGANVVMDLWSNRGKATKQVKDMVRGHQMANMAGARKLQPNLRAQPMVIDPFMINELDYYLVSHYHSDHIDINTAAAIINNPKLNHVKFVGPYECGEVWKNWGVPKDRIMILKPGDSFEFKDIKITAVESFDRTCLVTLPIQGADAQDGDLAGLAITDDDMARKAVNYIFETPGGTIYHGADSHFSNYFAKHGRDYDIDVVLNNYGENPIGIQDKMTSVDLLRMAENLRAKVVIPVHYDIWSNFMASTDEILELWKMRKERLQYDFHPFIWEVGGKYTYPQDQNRIEYHHPRGFDDCFLEDSNIQFKALL | not soluble |
| MTKVSVVGAAGTVGAAAGYNIALRDIADEVVFVDIPDKEDDTVGQAADTNHGIAYDSNTRVRQGGYEDTAGSDVVVITAGIPRQPGQTRIDLAGDNAPIMEDIQSSLDEHNDDYISLTTSNPVDLLNRHLYEAGDRSREQVIGFGGRLDSARFRYVLSEEFDAPVQNVEGTILGEHGDAQVPVFSKVSVDGTDPEFSGDEKEQLLGDLQESAMDVIERKGATEWGPARGVAHMVEAILHDTGEVLPASVKLEGEFGHEDTAFGVPVSLGSNGVEEIVEWDLDDYEQDLMADAAEKLSDQYDKIS | soluble |
| MTLDDDDYIKQMELQRKAFESQFGSLESMGFEDKTKNIRTEVDTRDSSGDEIDNSDHGSDFKDGTIESSNSSDEDSGNETAEENNQDSKPKTQPKVIRFNGPSDVYVPPSKKTQKLLRSGKTLTQINKKLESTEAKEEKEDETLEAENLQNDLELQQFLRESHLLSAFNNGGSGSTNSGVSLTLQSMGGGNDDGIVYQDDQVIGKARSRTLEMRLNRLSRVNGHQDKINKLEKVPMHIRRGMIDKHVKRIKKYEQEAAEGGIVLSKVKKGQFRKIESTYKKDIERRIGGSIKARDKEKATKRERGLKISSVGRSTRNGLIVSKRDIARISGGERSGKFNGKKKSRR | not soluble |
| MTLPVRKSLHDAVLQASKADTWEQATKEWNEVSFIFNGIGRSNCVCGNAIKYAYELFNGVTGQRLFPIGSDCVRHFHRLSLDQQLEEEEKLLRKVENLTRKAQKKEKIKVNKSNFDERLLKWLWEKGVFKPNRGNQFAPERDYQLFLEVFQGGSWTKAEPKKKARMEEVLEKCIKPFLLGKSDDQLYLVKLGKEKIDYEQELRIQAEKERKKRDKIAKQYADNLVLAMGPAERAYQDYFGFTETLTQEERKWEKILFGKNRAERAIKAKQYQKELEKDQRIASQDPIERKQKQTWILNSYFRELPEEKARFSRLLLEYRKSGEVPFSTEYLSDHLIDFFYKMKAFEFEIAPEQVRDFLKKSLQEDHRSSAQGSWIEGILLNCLKPFLERLVI | not soluble |
| MTLRKILALTCLLLPMMASAHQFETGQRVPPIGITDRGELVLDKDQFSYKTWNSAQLVGKVRVLQHIAGRTSAKEKNATLIEAIKSAKLPHDRYQTTTIVNTDDAIPGSGMFVRSSLESNKKLYPWSQFIVDSNGVALGAWQLDEESSAVVVLDKDGRVQWAKDGALTPEEVQQVMDLLQKLLK | not soluble |
| MTLSRFAYNGQRCPSSHNILDNSKIISEDCRKELTELFHHYYPIEIDPHRTIKEKLPHMVQWWSKAHSLLCQQRIQKVQIAQVVGESTAMLREGYKTFFDTLYQNNIPLFIFSAGIGDILEEIIRQMKVFHPNIHIVSNYMDFSEDGFLKGFKGQLIHTYNKNSSVCENSSYFQQLQNKTNIILLGDSIGDLTMADGVPGVQNILKIGFLNDKVEERRERYMDSYDIVLEKDETLDVVNGLLRHILYQGDCVELQGS | soluble |
| MTLTELRYIVAVAQERHFGRAARRCFVSQPTLSIAIKKLEEELAVSLFDRSSNDIITTEAGERIVAQARKVLEEAELIRHLANEEQNELEGAFKLGLIFTVAPYLLPKLIVSLRRTAPKMPLMLEENYTHTLTESLKRGDVDAIIVAEPFQEPGIVTEPLYDEPFFVIVPKGHSFEELDAVSPRMLGEEQVLLLTEGNCMRDQVLSSCSELAAKQRIQGLTNTLQGSSINTIRHMVASGLAISVLPATALTENDHMLFSIIPFEGTPPSRRVVLAYRRNFVRPKALSAMKAAIMQSQLHGVSFICD | soluble |
| MTMEKGMSSGEGLPSRSSQVSAGKITAKELETKQSYKEKRGGFVLVHAGAGYHSESKAKEYKHVCKRACQKAIEKLQAGALATDAVTAALVELEDSPFTNAGMGSNLNLLGEIECDASIMDGKSLNFGAVGALSGIKNPVSVANRLLCEGQKGKLSAGRIPPCFLVGEGAYRWAVDHGIPSCPPNIMTTRFSLAAFKRNKRKLELAERVDTDFMQLKKRRQSSEKENDSGTLDAVGAVVVDHEGNVAAAVSSGGLALKHPGRVGQAALYGCGCWAENTGAHNPYSTAVSTSGCGEHLVRTILARECSHALQAEDAHQALLETMQNKFISSPFLASEDGVLGGVIVLRSCRCSAEPDSSQNKQTLLVEFLWSHTTESMCVGYMSAQDGKAKTHISRLPPGAVAGQSVAIEGGVCRLESPVN | soluble |
| MTMSELGSLFEAGYHDILQLLAGQGKSPSGPPFARYFGMSAGTFEVEFGFPVEGGVEGSGRVVTGLTPSGKAASSLYIGPYGEIEAVYDALMKWVDDNGFDLSGEAYEIYLDNPAETAPDQLRTRVSLEHHHHHH | not soluble |
| MTMTPVSDPIPIGNQEDKENIEDAENTMNISPACDRILVDHQYTRDVVITGKCSSLTYKKA | not soluble |
| MTNDVEMKSETEELPPFPTVHILQVVKDAQQQHGLRHGDYARYRKYCAAKLERMRKALKFTNSHNCQKKRKAKFVKKWLSVESVQNVQFLNFGIFESERRYAEAMIDKITLEDNPEKSRKKFSMINSLRKAVLHATNLEKIVQESERFDAPTKLEAQAYAAWMRGMCSFESRNWQKASESLKLAKTVYEKLAEATNNTTLSSIFKGRCREIQPQLRLCEFNIAESPGAVGTMTELMELRMQMGEGGDSSVDKLISEMRASATSAEVVTIEWGGAKSTVDDEKAKQVVQEWKQTEVELAQCQTPKEKMALFEKATADTRDAIDRISDIIRRKSSENADTTVLQSIKAYLEFLKMNGTASRYLAIIDNTKSEKKSKPQDLLRLYDSVIEIYKEVAEIPGADHDKNLIQAFEVKVEYYRAFRCFYMASSYSALHKYSEAAALFDRTVSRVQDAEGKLKKLKSSSFITNETQSSLNELRSEVESAKVTVRAARLASAAGDVKTDSELAKIIDKRPLLETVNEWRQWDVRNSLKDKKTIPVASLPPAFIPMPNKPIFFDLANFHLTMPNVDDRLEKLQKDRDATPKKAAKGSSAAAASSKTSNQEEEEQQGLTGMLSGWKKSFWGNK | not soluble |
| MTNELLIEIGTEELPAGVINPALDYLKDKINSLLNARQVKTYGTPRRLTLYFKDFENERKEKKEVIWGPPKNVAYDEKGNPTKALEGFLKKNNASLEEVKVLKKDKGEYVAIVRKVIEKSPIEKLQEEFEEILLSVPFPKRMRWTSSKRITFSRPVRWILALFNGQVLKLRFGELESSNKTYGHRFLSKGEVTINNPADYEKTLKEHYVIPDFNERKEIILRALEKSSQEVGGKPSYPEGLVEEVTNLVEYPFPVLGKFDEKYLELPPLVITTVAAHHQRFFCFEKDGKLLNYFLGISNNKPNEKIKEGYEKVLRARLEDALFFYREDLKKDLKSLIPELKKVLFHPKVGSMYEKEERMEKIAQKLCPLLKCEWEKVKEAVWLSKVDLLTEMVKELDELQGYMGYVYAKAQGYDEEVAKALWEQYFPRSLEDKVPETTTGTILSLSDKIDNLYSFFKAGEIPKGSSDPYGLRRSAFGIIKIVDVKNLDLNLEDFKEIYGEFKQYPKLVEFLKQRLISYLEDYPVDIVRAVLNVYSPMEPYKVINSVRVLYEASKSPEFPSVVEAAKRVIRIIPKDWKNYEVDEKLLSEEAERELYQKLTEFENKELKSPLELLPLKEYIDKFFDNVKVMAEDEKIRNNRISLLKRVENLFRTFGDFNEIVIKEG | soluble |
| MTNNQTLDILLDVYAYNHAFRIAKALPNIPKTALYLLEMLKERRELNLAFLAEHAAENRTIEDQYHCSLWLNQSLEDEQIANYILDLEVKVKNGAIIDFVRSVSPILYRLFLRLITSEIPNFKAYIFDTKNDQYDTWHFQAMLESDHEVFKAYLSQKQSRNVTTKSLADMLTLTSLPQEIKDLVFLLRHFEKAVRNPLAHLIKPFDEEELHRTTHFSSQAFLENIITLATFSGVIYRREPFYFDDMNAIIKKELSLWRQSIV | not soluble |
| MTNVCDLTDRKCKPCEGGVPPLEMEEAEKLLKQLEQGWQLADNKISRTFSFKNYYQTMAFVNAIAWVSHREDHHPDMMVGYDWCRVEYMTHAIGGLSENDFICAAKVDMLFKS | not soluble |
| MTNWLIAYQGEPGAYSEIAALRFGEPLPCESFDDVFSAVTEQKADYAVIPIENSLGGSIHQNYDLLLRRPVVILAETFVKVEHCLLGLPGASVETATKAMSHPQALVQCHNFFATHPQIRAEAAYDTAGSAKMVAESRDKSALAIASKRAGELYGLDILKENLADEEWNITRFFCIAHENNPDISHLKVRPDVARQKTSIVFALPNEQGSLFRALATFALRGIDLTKIESRPSRKKAFEYLFYADFIGHREDQNVHNALENLREFATMVKVLGSYGVVNP | soluble |
